The text below walks through data of US6534640B1, “Methods and compositions to alter the cell surface expression of phosphatidylserine and other clot-promoting plasma membrane phospholipids” (Blood Center Research Foundation, priority 1996, dated 2003).

Entries after “also recorded” stand apart in the source; their conditions may differ.

Series [1] addresses T1, PL scramblase (Homo sapiens, UniProt O15162).
T1 sequence (O15162 1-318): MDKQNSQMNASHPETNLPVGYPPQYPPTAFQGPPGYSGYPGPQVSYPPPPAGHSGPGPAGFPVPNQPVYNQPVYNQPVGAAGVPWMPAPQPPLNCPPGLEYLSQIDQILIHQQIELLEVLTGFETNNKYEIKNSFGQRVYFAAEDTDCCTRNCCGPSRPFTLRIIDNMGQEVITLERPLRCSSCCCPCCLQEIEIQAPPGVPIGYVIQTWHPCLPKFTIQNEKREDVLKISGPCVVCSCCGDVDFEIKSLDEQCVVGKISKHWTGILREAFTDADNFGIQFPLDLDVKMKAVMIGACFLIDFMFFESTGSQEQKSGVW
The following applies: cited from earlier work.

For series [2], the target named is T2, human erythrocyte PL scramblase (Homo sapiens, UniProt O15162).
T2 construct: PL scramblase purified from human erythrocytes; from tissue; host or cells: human erythrocyte ghost membranes
T2 sequence (O15162 1-318): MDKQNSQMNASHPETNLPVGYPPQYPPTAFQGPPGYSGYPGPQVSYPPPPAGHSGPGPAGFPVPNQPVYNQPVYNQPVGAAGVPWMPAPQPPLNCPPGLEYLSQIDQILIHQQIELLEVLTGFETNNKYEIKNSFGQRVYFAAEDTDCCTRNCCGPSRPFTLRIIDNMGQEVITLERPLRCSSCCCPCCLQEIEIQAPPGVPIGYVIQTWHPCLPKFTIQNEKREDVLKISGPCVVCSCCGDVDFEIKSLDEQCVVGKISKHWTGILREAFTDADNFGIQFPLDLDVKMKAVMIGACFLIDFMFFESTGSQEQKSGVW
As to the kind of experiment: Treatment with hydroxylamine, then reconstitution into proteoliposomes and PL scramblase activity assay (NBD-PC). Particulars: 1 M hydroxylamine, 1 hour, room temperature, neutral pH; assay in 2 mM Ca2+, 3 hours. Type of series: biochemical. As to the method: Treatment with Hydroxylamine. PL scramblase was incubated 1 hour room temperature in 1 M hydroxylamine, 25 mM octylglucoside, 1 M Tris-HCl at pH 7.4. Match control samples of the protein were identically incubated under these conditions, omitting hydroxylamine. After incubation, samples were dialyzed and reconstituted into PL proteoliposomes for assay of PL scramblase activity.
Membrane reconstitution and assay. PL scramblase was reconstituted into proteliposomes and activity determined as previously described(F. Bassé, et al., supra, 1996; J. G. Stout, et al, supra, 1997).
FIG. 11 illustrates inactivation of PL scramblase by hydroxylamine. Purified human erythrocyte PL scramblase was incubated 1 hour, room temperature, in the presence of 50 mM octylglucoside, 1M TrisHCl, and either 0 (control) or 1M (hydroxylamine) hydroxylamine at pH 7.2. Untreated refers to sample maintained in low ionic strength sample buffer at 4° C. . Each sample was then dialyzed and reconstituted into proteoliposomes for assay of PL scramblase activity using NBD-PC as detailed in Bassé, et al., supra, 1996 with modifications of Stout, et al., supra, 1997. Ordinate indicates percent of total NBD-PC flipped during 3 hours. Incubation was in 2 mM Ca^2+, with correction for background measured in 0.1 mM EGTA. The error bars denote mean±SD, n=7. Combined data of three independent experiments performed on different days.

The target in series [3] is T1, PL scramblase. As to the kind of experiment: PL scramblase activity: Ca2+-dependent transbilayer movement of NBD-PC in reconstituted PC/PS proteoliposomes. Type of series: biochemical. Details: PCR was performed on a full-length clone using the primers; made in house; host or cells: E. coli TB1 (pMAL-C2). As to the method:
Reconstitution of PL scramblase or scramblase fusion protein into proteoliposomes. Reconstitution and functional activity were performed essentially as previously described (F. Bassé, et al., J. Biol. Chem. 271:17205-17210, 1996; J. G. Stout, et al., J. Clin. Invest. 99:2232-2238, 1997). Briefly, a mixture of PC and PS (9:1 molar ratio) was dried under a stream of nitrogen and resuspended in 100 mM Tris, 100 mM KCl, 0.1 mM EGTA, pH 7.4 (Tris buffer). Protein samples to be reconstituted were added to the liposomes at a final lipid concentration of 4 mg/ml in the presence of 60 mM OG, and dialyzed overnight at 4° C. against 200 vol of Tris buffer containing 1 g/L Bio-Beads SM-2. To liberate PL scramblase from MBP, the proteoliposomes were incubated 3 h at room temperature in the presence of 1/40 (w/w) factor Xa. The digestion was terminated by addition of 100 μM Glu-Gly-Arg chloromethyl ketone. Completeness of the digest was monitored by SDS-PAGE. […]
PL Scramblase activity. Scramblase activity was measured as previously described (F. Bassé, et al., supra, 1996; J. G. Stout, et al., supra, 1997 and in U.S. Ser. No. 08/790,186). […] Proteoliposomes were diluted 25-fold in Tris buffer containing 4 mM EGTA and transferred to a stirred fluorescence cuvet at 23° C. Initial fluorescence was recorded (SLM Aminco 8000 spectrof luorimeter; excitation at 470 nm, emission at 532 nm), 20 mM dithionite was added, and the fluorescence continuously monitored for a total of 120 seconds. The difference in non-quenchable fluorescence observed in presence vs. absence of CaCl2 Was attributed to Ca^2+-induced change in NBD-PC located in the outer leaflet (F. Bassé, et al., supra, 1996; J. G. Stout, et al., supra, 1997; J. C. McIntyre and R.G. Sleight, Biochemistry 30:11819-11827, 1991). Ionized [Ca^2+] was calculated using FreeCal version 4.0 software (generously provided by Dr. Lawrence F. Brass, University of Pennsylvania, Philadelphia, Pa.). […]

The test system of a further series is Raji cells. As to the kind of experiment: Prothrombinase assay of transfected Raji cells. It counts as cell-based, human. The following applies: transformed Raji cells, 2 μM A23187, vs clones expressing GFP alone. The protocol:
Prothrombinase Assay. Prothrombinase activity of Raji cells was determined by modification of methods previously described for platelets, using the chromogenic thrombin substrate S2238 (P. J. Sims, et al., supra, 1988). Briefly, 1×10^5 Raji cells (transfected with either pEGFP-C2 or pEGFP-C2-PL scramblase) were suspended in 200 μl HBSS containing 1% BSA in the presence of 2 nM FVa, 1.4 μM prothrombin 2.5 mM CaCl2, and 4 μM dansylarginine-N-(3-ethyl-1,5-pentanediyl)amide (to inhibit feed-back activation by thrombin), and incubated at 37° C. Ca^2+-ionophore A23187 (2 μM), or DMSO (as solvent control) was added, and prothrombin conversion was initiated by addition of 2 nM Fxa. Thrombin generation was stopped after 2 minutes by dilution into 10 mM EGTA and samples were stored on ice. Aliquots were transferred to a 96-well plate, and thrombin generated was assayed in TBS containing 1% BSA in presence of 150 μM S2238 by monitoring time-dependent changes in absorbance at 405 nm using a Thermomax plate reader (Molecular Devices, Sunnyvale, Calif.). Thrombin activity was calculated using purified thrombin as standard.

In the case of `O[C@H](CS)[C@H](O)CS` (racemic) [dithiothreitol], the “PL scramblase activity after incubation in reducing agents” value on PL scramblase [1] was “retention of normal PL scramblase activity”.
Consider `NO` [hydroxylamine], for which the “PL scramblase activity after incubation with hydroxylamine” value in series [2] was “near complete loss; also recorded: nearly complete inactivation”.

B1: recombinant PL scramblase: Recombinant human PL scramblase (SEQ ID NO:2) expressed in E. coli as MBP fusion, liberated by factor Xa (protein, listed as Homo sapiens)
chain: MDKQNSQMNASHPETNLPVGYPPQYPPTAFQGPPGYSGYPGPQVSYPPPPAGHSGPGPAGFPVPNQPVYNQPVYNQPVGAAGVPWMPAPQPPLNCPPGLEYLSQIDQILIHQQIELLEVLTGFETNNKYEIKNSFGQRVYFAAEDTDCCTRNCCGPSRPFTLRIIDNMGQEVITLERPLRCSSCCCPCCLQEIEIQAPPGVPIGYVIQTWHPCLPKFTIQNEKREDVLKISGPCVVCSCCGDVDFEIKSLDEQCVVGKISKHWTGILREAFTDADNFGIQFPLDLDVKMKAVMIGACFLIDFMFFESTGSQEQKSGVW
As to B1, the PL scramblase activity with PL scramblase [3] (2 mM CaCl2, mean±SD of three measurements) is recorded as 11.76±0.44 % of total NBD-PC flipped. Further, the “Ca2+-dependent PL scramblase activity (transbilayer movement of NBD-PC) in liposomes” value with PL scramblase [3] (PC/PS liposomes, absence or presence of 2 mM CaCl2) is given as “PL scramblase activity was observed”. In the series with PL scramblase [3] (expressed and purified from E. coli, reconstituted in proteoliposomes), the “specific PL mobilizing activity relative to the endogenous protein purified from the erythrocyte membrane” value was “approximately 50%”. In the series with Raji cells, the “cell capacity to catalyze the prothrombinase reaction upon entry of calcium into the cytosol” value was “increase”.
